The results in this text go back to PMC5575276.

Some results are limits rather than exact numbers.

The target in assay [1] is recombinant hexa-his-streptavidin (UniProt P22629). The assay is described as follows: non-denaturing SDS-PAGE; purified and refolded protein on SDS-PAGE under non-denaturing against denaturing conditions.
In assay [2] the target is TLM-core protein (2xTLM-HA-HBV core with strep-tag III in the spike tip), assembled to TLM-carrier capsid (hepatitis B virus) (UniProt P03146). The assay is described as follows: SPR; Biacore T200; TLM-carrier capsid (TLM-core protein) immobilised on a CM5 chip; streptavidin injected at five concentrations (4.7-75.7 nM) or streptavidin-Ova at six concentrations (1.9-62.5 nM); fitted with the heterogeneous ligand and the bivalent analyte models (1:1 model fitted poorly).
Chain of UniProt P03146 (P03146 whole entry): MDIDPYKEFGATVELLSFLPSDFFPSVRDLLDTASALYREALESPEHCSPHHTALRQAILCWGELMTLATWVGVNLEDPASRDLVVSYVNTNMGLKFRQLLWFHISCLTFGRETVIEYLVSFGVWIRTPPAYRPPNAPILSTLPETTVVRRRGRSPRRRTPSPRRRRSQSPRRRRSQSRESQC

Assay [3] concerns the target streptavidin-Ova fusion protein (streptavidin, hexa-his tag, ovalbumin). The assay is described as follows: non-denaturing SDS-PAGE; purified and refolded protein on SDS-PAGE under non-denaturing against denaturing conditions.
Assay [4] has as its target TLM-core protein (2xTLM-HA-HBV core with strep-tag III in the spike tip), assembled to TLM-carrier capsid (hepatitis B virus) (UniProt P03146).

“recombinant hexa-his-streptavidin (from UniProt P22629 25-183) (natural protein)”: in assay [1], the stoichiometry N came out at 4. For the same substance, in assay [2], the KD2 (heterogeneous ligand model, set 2, strong interaction) was 4.74 nM; the Ka1 (on-rate, bivalent analyte model, step 1) was determined as 146000 M^- s^−1; the Ka2 (on-rate, bivalent analyte model, step 2) amounted to 8.16e-05 RU^- s^-; the Ka2 (on-rate, heterogeneous ligand model, set 2, strong interaction) amounted to 397000 M^- s^−1. Besides, in assay [2], the Kd1 (off-rate, bivalent analyte model, step 1) came out at 0.0213 s⁻¹; the Kd2 (off-rate, bivalent analyte model, step 2) was determined as 0.00126 s⁻¹; the Kd2 (off-rate, heterogeneous ligand model, set 2, strong interaction) is 0.00188 s⁻¹.

In the case of “streptavidin-Ova fusion protein (streptavidin, hexa-his tag, ovalbumin)”, the stoichiometry N in assay [3] is 4. In assay [2], this substance had a KD2 (heterogeneous ligand model, set 2, strong interaction) of 1.97 nM; a Ka1 (on-rate, bivalent analyte model, step 1) of 94200 M^- s^−1; a Ka2 (on-rate, bivalent analyte model, step 2) of 0.000428 RU^- s^-; a Ka2 (on-rate, heterogeneous ligand model, set 2, strong interaction) of 356000 M^- s^−1. In assay [2], this substance had a Kd1 (off-rate, bivalent analyte model, step 1) of 0.0104 s⁻¹; a Kd2 (off-rate, bivalent analyte model, step 2) of 0.000823 s⁻¹; a Kd2 (off-rate, heterogeneous ligand model, set 2, strong interaction) of 0.0007 s⁻¹; a dissociation half-life (t 1/2) of the strong binding interaction of 16.5 min. The substance further gave an IFN-γ secreted (ELISA, 72 h) by OT-I CD8+ T-cells co-cultured with BMDCs: Ova-loaded TLM-carrier capsid compared with free streptavidin-Ova in assay [4] greater than 10 fold.
